Experiment: yeast display, Sf9 membrane polyspecificity reagent, FACS + sequencing; frameworks hold sequencing errors
Outline: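 Galactose induction of a Saccharomyces cerevisiae BJ5465 synthetic nanobody display library ran 36–48 hours. The cells were then stained for 1 hour at 4 °C with 10% biotinylated, detergent-solubilized Sf9 membrane reagent, pulled down on streptavidin microbeads and FACS-sorted into low and high (top ~1%) gates on expression and reagent-binding fluorescence. Labels for polyreactivity follow the gate of origin.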

Row | Sequence | polyreactivity (PSR sort gate)
1 | QVQLVESGGGLVQAGGSLRLSCAASGSTFWYYAMGWYRQAPGKERELVASITYSGGSTYYADSVKGRFTISRDNAKNTVYLQMNSLKPEDTAVYYCAAEGYYSNYHFWGQGTQVTVSS | low polyreactivity
2 | QVQLVESGGGLVQAGGSLRLSCAASGSTFWYYVMGWYRQAPGKERELVAAISIVGSTYYADSVKGRFTISRDNAKNTVYLQMNSLKPEDTAVYYFNAGYFRGSNAIKVRLTYDHWGQGTQVTVSS | low polyreactivity
3 | QVQLVESGGGLVQAGGSLRLSCAASGSTFYANAMGWYRQAPGKERELVAAISRSGGRTYYADSVKGRFTISRDNAKNTVFLQMNSLKPEDTAVYYCAKAYHHSEFDYWGQGTQVTVSS | high polyreactivity
4 | QVQLVESGGGLVQAGGSLRLSCAASGSTFYANAMGWYRQAPGKERELVADISFSGASTFYADSVKGRFTISRDNAKNTVYLQMNSLKPEDTAVYYCATDNPSVVGFDYWGQGTQVTVSS | low polyreactivity
5 | QVQLVESGGGLVQAGGSLRLSCAASGSTFYANDMGWYRQAPGKERELVASISLGDGSTYYADSVKGRFTISRDNAKNTVYLQMNSLKPEDTAVYYCAAGFYVWYWGFNYWGQGSQVTVSS | low polyreactivity
6 | QVQLVESGGGLVQAGGSLRLSCAASGSTFYAYAMGWYRQAPGKERELVAAIDSGGSTYYADSVKGRFTISRDNAKNTVYLQMNSLKPDDTAVYYCAVRHRYTRAYWGRDYWGQGTQVTVSS | low polyreactivity
7 | QVQLVESGGGLVQAGGSLRLSCAASGSTFYAYAMGWYRQAPGKERELVAAISSSGGSTYYADSVKGRFTISRDNAKNTVYLQMNSLKPEDTAVYYCAAYDSVQKYWILGFDYWGQGTQVTVSS | low polyreactivity
8 | QVQLVESGGGLVQAGGSLRLSCAASGSTFYDYAMGWYRQAPGKERELVAAINWSSDTTYYADSVKGRFTISRDNAKNTVYLQMNSLKPEDTAVYYCATDSAYRGYDYWGQGTQVTVSS | low polyreactivity
9 | QVQLVESGGGLVQAGGSLRLSCAASGSTFYDYAMGWYRQAPGKERELVASISISGGSTYADSVKRRFTISRDNAKNTVYLQMNSLKPEDTAVYYCNAKNYSWDDYDWVPDYEYWGQGTQVTVSS | low polyreactivity
10 | QVQLVESGGGLVQAGGSLRLSCAASGSTFYDYAMGWYRQAPGKERELVASISSGGGTYYADSVKGRFTISRDNAKNTVYLQMNSLKPEDTAVYYCADDDYSSYVYGTFDRYDYWGQGTQVTLSS | low polyreactivity
11 | QVQLVESGGGLVQAGGSLRLSCAASGSTFYDYVMGWYRKAPGKERELVAAITGDGTTDYADSVKGRFTISRDNAKNTVYLQMNSLKPEDTAVYYCNADISLDYDYWGQGTQVTVSS | low polyreactivity
12 | QVQLVESGGGLVQAGGSLRLSCAASGSTFYDYVMGWYRQAPGKERELVAAISRTGASTYYADSVKGRFTISRDNAKNTVYLQMNSLKPEDTAVYYCAADSDTVRYYYWGQGTQVTVSS | high polyreactivity
13 | QVQLVESGGGLVQAGGSLRLSCAASGSTFYEKAMGWYRQAPGKEREFVAAITQSGGSTYYADSVKGRFTISRDNAKNTVYLQMNSLKPEDTAVYYCAKVWPKHYRSLGYGYWGQGTQVTVSS | low polyreactivity
14 | QVQLVESGGGLVQAGGSLRLSCAASGSTFYEYAMGWYRPAPGKERELVAAISSGGSTYYADSVKGRFTISRDNAKNTVYLQMNSLKPEDTAVYYCNSDCQTYGGEYDYWGQGTQVTVSS | low polyreactivity
15 | QVQLVESGGGLVQAGGSLRLSCAASGSTFYEYAMGWYRQAPGKERELVAAIDERGGNTYYADSVKGRFTISRDNAKNTVYLQMNSLKPEVTAVYYCAADAYPFYQSYYPFEYWGQGTQVTVSS | low polyreactivity
16 | QVQLVESGGGLVQAGGSLRLSCAASGSTFYFYAKGWYRQAPGRELEWVAAISYSGGSTYYADSVKGRFTISRDNAKNTVYLQMNSLTPEDTAVYSCAADAAFYYDADDEYDYWGQGTQVTVSS | low polyreactivity
17 | QVQLVESGGGLVQAGGSLRLSCAASGSTFYFYDMGWYRQAPGKERELVATIDDGGGSTYYADSVKGRFTISRDNAKNTVYLQMNSLKPEDTAVYYCAADYFVYPDDWYDYWGQGTQVTVSS | low polyreactivity
18 | QVQLVESGGGLVQAGGSLRLSCAASGSTFYGNAMGWSRQAPGKERELVAAIRWRGGRTYYADSVKGRFTISRDNAKNTVYLQMNSLKPEDTAVYYCNALPGVSHTQYDRVGYWGQGTQVTVSS | high polyreactivity
19 | QVQLVESGGGLVQAGGSLRLSCAASGSTFYGNPLGWYRKAPGKERELVAAIRRSGGRTYYADSVKGRFTISRDNAKNTVYLQMNSLKPEDTAVYYCAAAKYSGAYRSTMNYWGQGTQVTVSS | high polyreactivity
20 | QVQLVESGGGLVQAGGSLRLSCAASGSTFYGYALGWYRQAPGKERELVAGITSAGSTYYADSVKGRFTISRDNAKNTVYLQMNSLKPEDTAVYYCAAVYRRWIWRERYYYCGQGTQVTVSS | high polyreactivity

Row | Sequence | polyreactivity (PSR sort gate)
21 | QVQLVESGGGLVQAGGSLRLSCAASGSTFYGYAMGWYRPAPGKERELVAAITRSGGSTYYADSVKGRFTISRDNAKNTVYLQMNSLKPEDTEVYYCNKYGYKGGVGYDYWGQGTQVTVSS | high polyreactivity
22 | QVQLVESGGGLVQAGGSLRLSCAASGSTFYGYAMGWYRQAPGKERELVAAISSSGTRTYYADSVKGRFTISRDNAKNTVYLQMNSLKPEDTAVYYCATDVRVGHIRDYDYWGQGTQVTVSS | high polyreactivity
23 | QVQLVESGGGLVQAGGSLRLSCAASGSTFYGYAMGWYRQAPGKERELVASITTRGGRTNYADSVKGRFTISRDNAKNTVYLQMNSLKPEDTAVYYCATYSYVTRYARWGEYDYWGQGTQVTVSS | high polyreactivity
24 | QVQLVESGGGLVQAGGSLRLSCAASGSTFYGYAMGWYRQPPGKERELVAAITIGGRTYYADSVKGRFTISRDNAKNTVYLQMNSLKPEDTAVYYCAAAILRTVPELGSRRTYYYWGQGTQVTVSS | high polyreactivity
25 | QVQLVESGGGLVQAGGSLRLSCAASGSTFYHNAMGWYRQAPGKERELVAAITSGTSTYYADSVKGRFTISRDNAKNTVYLQMNSLKPEDTAVYDCAADSPWGGGYFVLYNYWGQGTQVTVSS | low polyreactivity
26 | QVQLVESGGGLVQAGGSLRLSCAASGSTFYHNVMGWYRQAPGKERELVASIDTGDSTNYADSVKGRFTISRDNAKKTVYLQMNSLKPEDTAVYYCNAVWNTFISGRSYDYWGQGTQVTVSS | low polyreactivity
27 | QVQLVESGGGLVQAGGSLRLSCAASGSTFYHYAMGWYRQAPGKERELVASISHSGGRTFYADSVKGRFTISRDNAKNTVYLQMNSLKPEDTAVYYCAADWRTLTEYGYKGYYWGLGTQVTVSS | low polyreactivity
28 | QVQLVESGGGLVQAGGSLRLSCAASGSTFYINAMGWSRQAPGKEREFVAAIDWGGGTTYYADSVKGRFTISRDNAMNTVYLQMNRLKPEDTAVYYCAAERNYWSTQYYYWGQGTQVTVSS | high polyreactivity
29 | QVQLVESGGGLVQAGGSLRLSCAASGSTFYINAMRWYRPAPGKERELVAAISWSGGSTYYADSVKGRFTISRDNAKNTVYLQMNSLKPEDTAVYYCAADWYLGWSLDYDYWGQGTQVTVSS | low polyreactivity
30 | QVQLVESGGGLVQAGGSLRLSCAASGSTFYIYAMGWYIQAPGKERELVAAISTTDGTTYYADSVKGRFTISRDNAKNTVYLQMNSLKPEDTAVYYCAAEWFGSVQPAYDYWGQGTQVTVSS | high polyreactivity
31 | QVQLVESGGGLVQAGGSLRLSCAASGSTFYIYAMGWYRPAPGKERELVARISGSGGSTYYADSVKGRFTISRDNAKNTVYLQMNSLKPEDTAVYYCAADDIYKYYQYYAFPYYRYDYWGQGTQVTVSS | low polyreactivity
32 | QVQLVESGGGLVQAGGSLRLSCAASGSTFYIYAMGWYRQAPGKDRELVAAISGRGGSTYYADSVKGRFTISRDNAKNTVYLQMNSLKPEDTAVYYCATYSRQDHKYDYWGQGTQVTVSS | high polyreactivity
33 | QVQLVESGGGLVQAGGSLRLSCAASGSTFYIYAMGWYRQAPGKERELVAAINSGGGTNYADSVKGRFTISRDNAKNTVYLQMNSLKPEDTAVYYCAKTFYSLYWGQGTQVTVSS | low polyreactivity
34 | QVQLVESGGGLVQAGGSLRLSCAASGSTFYIYAMGWYRQAPGKERELVAAISWRGGRTYYADSVKGRFTISRDNAKNTVYLQMNSLKPEDTAVYYCAAAYLRWSGTYYYVDGYDYWGQGTQVTVSS | high polyreactivity
35 | QVQLVESGGGLVQAGGSLRLSCAASGSTFYIYAMGWYRQAPGKERELVAAITWSGGSTYYADSVKGRFTISRDNAKNTVYLQMNSQKPEDTAVYYCATKRARYSYDYWGQGTQVTVSS | high polyreactivity
36 | QVQLVESGGGLVQAGGSLRLSCAASGSTFYIYAMGWYRQAPGKEREMVARISGSGGSTYYADSVKGRFTISRDNAKNTVYLQMNSLKPEDTAVYYCAADDIYKYYQYYAVPYYRYDYWGQGTQVTVSS | low polyreactivity
37 | QVQLVESGGGLVQAGGSLRLSCAASGSTFYIYGMGWYRQAPGKERELVARISSGGSTYADSVKGRFTISRDNAKNTVYLQMNSLKPEDTAVYYCAAAAARTYRRYRYEGYYYWGQGTQVTVSS | high polyreactivity
38 | QVQLVESGGGLVQAGGSLRLSCAASGSTFYKYAMGWYRQAAGKERELVASISRSGGSTSYADSVKGRFTISRDNAKNTVYLQMNCLKPEDTAVYYCAATWRQHPGSMGYWGQGTQVTVSS | high polyreactivity
39 | QVQLVESGGGLVQAGGSLRLSCAASGSTFYKYAMGWYRQAPGKERELVAAISRGGSTYYADSVKGRFTISRDNAKNTVYLQMNSLKPEDTAVYYCAAETVSYYSKYDYWGQGTQVTVSS | low polyreactivity
40 | QVQLVESGGGLVQAGGSLRLSCAASGSTFYKYAMGWYRQAPGKERELVASISRRAGSTYYADSVKGRFTISRDNAKNTVYLQMNSLKPEDTAVYYCAAVGRYDRVFDYDYWGQGTQVTVSS | high polyreactivity

Source: the nanobody polyreactivity screen of Harvey et al. (2022)
